From paper PMC5444744, “Interaction between granulin A and enolase 1 attenuates the migration and invasion of human hepatoma cells” (Oncotarget, 2017)

Target: T1, ENO1 (bought, ATGen #ATGP0404) (UniProt P06733 1-434)
T1 construct: ENO1 (α-enolase), bought protein, ATGen #ATGP0404; also called α-enolase; source: bought: ATGen (#ATGP0404)
Assay: SPR; ENO1 immobilised directly on CM5 chip (8171 RU, 10 mM sodium acetate pH 5.0); GRN A 3.5-112.0 μM in HBS-EP (10 mM HEPES, 150 mM NaCl, 3 mM EDTA, 0.05% P20) at 30 μL/min; BIACORE T200; KD = Koff/Kon
Details: both partners purified

T1 sequence (P06733 whole entry): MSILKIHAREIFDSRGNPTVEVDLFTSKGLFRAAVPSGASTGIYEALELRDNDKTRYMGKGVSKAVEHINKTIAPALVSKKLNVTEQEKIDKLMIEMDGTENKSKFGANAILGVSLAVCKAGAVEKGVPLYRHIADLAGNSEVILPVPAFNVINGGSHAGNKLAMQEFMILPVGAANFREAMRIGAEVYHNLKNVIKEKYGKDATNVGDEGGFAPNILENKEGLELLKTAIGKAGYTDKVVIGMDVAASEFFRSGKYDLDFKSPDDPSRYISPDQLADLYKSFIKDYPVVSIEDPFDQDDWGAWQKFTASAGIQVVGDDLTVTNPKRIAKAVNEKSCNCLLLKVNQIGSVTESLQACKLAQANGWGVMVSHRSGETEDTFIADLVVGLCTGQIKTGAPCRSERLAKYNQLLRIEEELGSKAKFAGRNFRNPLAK

B1: Granulin A (His-GRN A) (peptide, UniProt P28799 281-336, looked up)
chain: DVKCDMEVSCPDGYTCCRLQSGAWGCCPFTQAVCCEDHIHCCPAGFTCDTQKGTCE
notes: granulin A (GRN A), a peptide of about 6 kDa with 12 cysteine residues, derived from proteolysis of progranulin (PGRN); The source and limits of the His-tagged GRN A are not described; The SPR methods call the analyte only 'GRN A'
With B1 the Kd was 56 µM.
